# Test results reported in patent US20200115432A1 (published 2020).
# T1: peptide on HLA-A*02:01 (human)
# T1 peptide: VYALPLKML
# T2: peptide on HLA-A*24:02 (human)
# T2 peptide: VYALPLKML
# Experiments:
# [1] = molecular target: T1, peptide on HLA-A*02:01; experiment: activation reporter or marker
# [2] = molecular target: T2, peptide on HLA-A*24:02; experiment: activation reporter or marker
binder,measurement,setting,value
"JG9-TCR (TCR, V domains shown) Valpha: GQQLNQSPQSMFIQEGEDVSMNCTSSSIFNTWLWYKQEPGEGPVLLIALYKAGELTSNGRLTAQFGITRKDSFLNISASIPSDVGIYFCAGPMKTSYDKVIFGPGTSLSVIP Vbeta: DAGVIQSPRHEVTEMGQEVTLRCKPISGHDYLFWYRQTMMRGLELLIYFNNNVPIDDSGMPEDRFSAKMPNASFSTLKIQPSEPRDSAVYFCASSSANYGYTFGSGTRLTVV",binding result,[1],no recognition
same,binding result,[2],no recognition
